# Reference: patent US9951335B2, “Compositions and methods for treating otitis media and other conditions with inhibitors of CYLD” (Georgia State University Research Foundation, Inc., priority 2012, dated 2018)
# How the values were obtained:
# [1] = tested on: TGF-β-induced fibrotic response; assay: TGF-β-induced fibrotic response in TRAF6-depleted cells; assay type: cell-based
# From the text: Because K14 lysine in the pleckstrin homology domain of Akt is critical for mediating its function, we next determined whether mutation of K14 lysine to arginine (R) reduces polyubiquitination of Akt. […] We further determined whether K14 residue in Akt is indeed functionally critical for mediating CYLD-induced inhibition of TGF-β-signalling. […] TNF receptor-associated factor 6 (TRAF6) was previously shown to function as an E3 ligase for Akt-K63 polyubiquitination and CYLD deubiquitinates TRAF6. Thus, we next explored the possibility that CYLD may inhibit Akt-mediated fibrotic responses via deubiquitinating TRAF6.
# It is possible that CYLD may inhibit Akt-mediated fibrotic response by actually deubiquitinating TRAF6. Thus, we evaluated the effect of siCYLD on TGF-β-induced fibrotic response in TRAF6-depleted cells using siTRAF6. […] Here we have provided strong evidence that CYLD inhibits S. pneumoniae-induced Smad3-dependent fibrosis via inhibiting Akt, thereby linking CYLD to Smad3 via Akt. It is still unclear whether or not direct activation of Akt induces a fibrotic response via Smad3. Indeed, direct activation of Akt by expressing a constitutively active form of C/A-Akt induces expression of the fibrotic response gene PAI-1 and CTGF in Smad3+/+ cells, but not in Smad3−/− cells. […]
# TGF-β-signalling = assay: TGF-β-induced SBE-promoter (SBE-Luc) activity in human epithelial cells; assay type: cell-based
# Description: (§1) The expression plasmids Flag-WT-CYLD, HA-WT-CYLD, Flag-H/N-CYLD, HA-C/S-CYLD, Flag-WT-Smad3, C/A-TβRI, and the reporter plasmids SBE-Luc, PAI-1-Luc, and NF-κB-Luc were previously described. Flag-WT-Akt1, pRK5-HA-Ub WT, pRK5-HA-Ub K63, and pRK5-HA-Ub K48 were from Addgene, and K to R mutants of Akt were generated with WT-Akt1 using QuickChange XL Site-Directed Mutagenesis kit (Stratagene). All transient transfections were carried out using TransIT-LT1 reagent (Minis) or Lipofectamine (Invitrogen) according to manufacturers' instructions.
# NF-κB = assay: TNF-α-induced NF-κB-Luc activity; assay type: cell-based; conditions: TNF-α 10 ng ml−1
# Description: as §1
# CYLD = CYLD knockdown efficiency of siCYLD (immunoblotting); assay type: cell-based, human; conditions: a number of cell types including NHBE cells
# Description: RNA-mediated interference for downregulating CYLD expression was carried out using pSuper-CYLD and the sequence for the siCYLD is 5′-[…]-3′ (SEQ ID NO:13). Human and mouse siRNAs for Akt and CHIP were from Dharmacon, and knockdown of Akts and CHIP, using siAkt and siCHIP, was performed with Lipofectamine 2000 (Invitrogen). ON-TARGETplus SMARTpool of siRNAs targeting human Akt1, human CHIP, mouse Akt1, and mouse Akt2 consists of four siRNAs and sequences for the siRNAs are as follows: Human siAkt1 (5′-[…]-3′ (SEQ ID NO:14), 5′-[…]-3′ (SEQ ID NO:15), 5′[…]-3′ (SEQ ID NO:16), 5′-[…]-3′ (SEQ ID NO:17)); human CHIP (5′-[…]-3′ (SEQ ID NO:18), 5′-[…]-3′ (SEQ ID NO:19), 5′-[…]-3′ (SEQ ID NO:20), 5′-[…]-3′ (SEQ ID NO:21)); mouse Akt1 (5′-[…]-3′ (SEQ ID NO:22), 5′-[…]-3′ (SEQ ID NO:23), 5′-[…]-3′ (SEQ ID NO:24), 5′-[…]-3′ (SEQ ID NO:25)); mouse Akt2 (5′-[…]-3′ (SEQ ID NO:26), 5′-[…]-3′ (SEQ ID NO:27), 5′-[…]-3′ (SEQ ID NO:28), 5′-[…]-3′ (SEQ ID NO:29)).
# Western blot, immunoprecipitation and ubiquitination experiments were performed as follows. Western blots were performed using whole-cell extracts, separated on 8 or 10% SDS-PAGE gels, and transferred to polyvinylidine di& uoride membranes. […] Immunoprecipitates were then suspended in a sample buffer, separated on 8% SDS-PAGE, transferred to polyvinylidine difluoride membrane, and detected by immunoblot analysis, as described above. […]
# PAI-1 = assay: TGF-β-induced PAI-1 expression in Akt1−/− cells; assay type: cell-based
# From the text: Thus, we determined the effect of knockdown of both Akt1 and 2 on Smad3 protein level in these cells. […] We further confirmed whether activation of Akt does induce upregulation of fibrotic response gene expression via Smad3. Activation of Akt by expressing a constitutively active C/A-Akt indeed induced expression of PAI-1 and CTGF in Smad3+/+ cells, but not in Smad3−/− cells. […] PI3 K is known as the one of the major signalling molecules upstream of Akt. We thus determined whether PI3K, like Akt, is also involved in mediating CYLD-dependent Smad3 degradation by evaluating the effect of PI3K and Akt inhibitors on Smad3 protein expression. […] Further studies are needed to determine whether CYLD-Akt-mediated regulation of Smad3 is indeed independent of PI3K by using more specific approaches.
# Akt = Akt ubiquitination in cells (immunoprecipitation, immunoblotting); assay type: cell-based, human; conditions: epithelial cells
# Description: Western blot, immunoprecipitation and ubiquitination experiments were performed as follows. Western blots were performed using whole-cell extracts, separated on 8 or 10% SDS-PAGE gels, and transferred to polyvinylidine di& uoride membranes. The membrane was blocked with a solution of PBS containing 0.1% Tween 20 (PBS-T) and 5% BSA. The membrane was then incubated in a 1:2,000 dilution of a primary antibody in 5% BSA-PBS-T. After three washes in PBS-T, the membrane was incubated with 1:5,000 dilution of the corresponding secondary antibody in 3% non-fact skim milk-PBS-T. Respective proteins were visualized by using enhanced chemiluminescence detection reagents, according to the manufacturer's instructions. To conduct immunoprecipitation analysis, cell lysates were incubated with 1 μg of primary antibodies overnight, at 4° C., followed by 2-h incubation with protein A/G-agarose beads (Invitrogen). Immunoprecipitates were then suspended in a sample buffer, separated on 8% SDS-PAGE, transferred to polyvinylidine difluoride membrane, and detected by immunoblot analysis, as described above. […]
molecule,measurement,setting,value
"siCYLD: RNA-mediated interference for downregulating CYLD expression using pSuper-CYLD, SEQ ID NO:13 (nucleic acid, expressed from pSuper vector) GATCCCCGAGCTACTGAGGACAGAAATTCAAGAGATTTCTGTCCTCAGTAGCTCTTTTTGGAAA",TGF-β-induced fibrotic response,[1],still enhanced
same,TGF-β-induced Smad-binding element (SBE)-dependent promoter activity,TGF-β-signalling; A549 and HeLa cells,markedly enhanced
same,"TGF-β-induced SBE-dependent promoter activity, dose-dependent manner",TGF-β-signalling; A549 cells transfected with various amounts,enhanced
same,TGF-β-induced SBE-Luc activity,TGF-β-signalling; human primary bronchial epithelial NHBE cells,enhanced
same,TNF-α-induced activation of NF-κB-Luc activity,NF-κB,greatly enhanced
same,endogenous CYLD protein expression,CYLD,efficiently reduced
same,TGF-β-induced PAI-1 expression,PAI-1,no longer enhanced
same,S. pneumoniae-induced Akt ubiquitination,Akt,markedly enhanced
